T1: Serum-derived human C1s (human, UniProt P09871 16-688)
T1 construct: The analyte was C1s purified from serum; also called hC1s
T1 sequence: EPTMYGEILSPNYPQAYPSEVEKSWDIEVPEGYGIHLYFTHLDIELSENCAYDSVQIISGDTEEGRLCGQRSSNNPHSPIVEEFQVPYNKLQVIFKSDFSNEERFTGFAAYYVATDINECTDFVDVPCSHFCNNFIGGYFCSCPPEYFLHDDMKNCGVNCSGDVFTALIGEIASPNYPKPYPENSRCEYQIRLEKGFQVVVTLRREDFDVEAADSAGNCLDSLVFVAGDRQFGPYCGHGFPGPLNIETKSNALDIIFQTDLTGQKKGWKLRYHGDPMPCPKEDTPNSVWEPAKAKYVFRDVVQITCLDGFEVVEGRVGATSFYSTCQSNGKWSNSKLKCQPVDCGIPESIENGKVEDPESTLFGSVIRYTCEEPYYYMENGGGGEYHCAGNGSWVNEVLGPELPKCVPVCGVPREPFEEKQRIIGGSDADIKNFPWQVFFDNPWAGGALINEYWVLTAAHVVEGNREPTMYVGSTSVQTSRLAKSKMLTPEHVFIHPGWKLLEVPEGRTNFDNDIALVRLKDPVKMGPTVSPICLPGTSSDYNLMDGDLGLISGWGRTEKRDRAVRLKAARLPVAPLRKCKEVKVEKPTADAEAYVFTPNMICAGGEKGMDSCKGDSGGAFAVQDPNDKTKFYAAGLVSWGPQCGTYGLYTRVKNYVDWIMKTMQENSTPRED


Legend:
Serum-derived human C1s [1] = biological target: T1, Serum-derived human C1s; assay: SPR Biacore T200, 37 C, antibody captured on protein A/G, pH 7.4, 1.2 mM CaCl2
Description: (§1) The binding affinity of all histidine-substituted variants at pH 7.4 and pH 5.8 were determined at 37 degrees C. using Biacore T200 instrument (GE Healthcare). Recombinant Protein A/G (Pierce) was immobilized onto all flow cells of a CM4 sensor chip using amine coupling kit (GE Healthcare). Antibodies and analytes were prepared in 7(+) buffer (20 mM ACES, 150 mM NaCl, 1.2 mM CaCl2, 0.05% Tween 20, 0.005% NaN3, pH 7.4) or 5(+) buffer (20 mM ACES, 150 mM NaCl, 1.2 mM CaCl2), 0.05% Tween 20, 0.005% NaN3, pH 5.8). Each antibody was captured onto the sensor surface by protein A/G. Antibody capture levels were aimed at 200 resonance unit (RU). […] Sensor surface was regenerated each cycle with 10 mM Glycine-HCl pH 1.5. […] An additional dissociation phase at pH 5.8 was integrated immediately after the dissociation phase at pH 7.4. This dissociation rate in 5(+) buffer was determined by processing and fitting data using Scrubber 2.0 (BioLogic Software) curve fitting software.

Serum-derived human C1s [2] = biological target: T1, Serum-derived human C1s; assay: SPR Biacore T200, 37 C, ratio of dissociation rates pH 5.8 / pH 7.4, 1.2 mM CaCl2
Description: as §1

Serum-derived human C1s [3] = biological target: T1, Serum-derived human C1s; assay: SPR Biacore T200, 37 C, antibody captured on protein A/G, pH 5.8, 1.2 mM CaCl2
Description: as §1

Serum-derived human C1s [4] = biological target: T1, Serum-derived human C1s; assay: SPR Biacore T200, 37 C, ratio of KD pH 5.8 / pH 7.4, 1.2 mM CaCl2
Description: as §1, with “software. […]” for “software.”

| Binder | kon (Serum-derived human C1s [1]) [M⁻¹ s⁻¹] | koff (5.8+ of 775+)/koff (7.4+) (Serum-derived human C1s [2]) | koff (Serum-derived human C1s [3]) [s⁻¹] | kon (Serum-derived human C1s [3]) [M⁻¹ s⁻¹] | KD (5.8+)/KD (7.4+) (Serum-derived human C1s [4]) | Kd (Serum-derived human C1s [1]) [nM] | Kd (Serum-derived human C1s [3]) [nM] |
| --- | --- | --- | --- | --- | --- | --- | --- |
| IPN92H0033/IPN93L0024-SG136 (antibody, human IgG1, kappa) heavy: EVMLVESGGGLVKPGGSLRLSCAASGFTFSNYAMSWVRQAPGKGLEWVATISSGGSHTYYLDSVKGRFTISRDNSKDTLYLQMNSLRAEDTALYYCARLFTGHAMDYWGQGTLVTVSSASTKGPSVFPLAPSSKSTSGGTAALGCLVKDYFPEPVTVSWNSGALTSGVHTFPAVLQSSGLYSLSSVVTVPSSSLGTQTYICNVNHKPSNTKVDKKVEPKSCDKTHTCPPCPAPELRRGPSVFLFPPKPKDTLMISRTPEVTCVVVDVSHEDPEVKFNWYVDGVEVHNAKTKPREEQYNSTYRVVSVLTVLHQDWLNGKEYKCKVSNKGLPSSIEKTISKAKGQPREPQVYTLPPSREEMTKNQVSLTCLVKGFYPSDIAVEWESNGQPENNYKTTPPVLDSDGSFFLYSKLTVDKSRWQQGNVFSCSVMHEALHNHYTQKSLSLSP light: QIVLTQSPATLSLSPGERATLSCTASSSVSSSYLHWYQQKPGKAPKLWIYSTSNLASGVPSRFSGSGSGTDYTLTISSLQPEDFATYYCHQYYRLHPITFGQGTKLEIKRTVAAPSVFIFPPSDEQLKSGTASVVCLLNNFYPREAKVQWKVDNALQSGNSQESVTEQDSKDCTYSLSSTLTLSKADYEKHKVYACEVTHQGLSSPVTKSFNRGEC | 227000 | 5.1 | 0.0031 | 261000 | 4.7 |  |  |
| IPN92H0038/IPN93L0024-SG136 (antibody, human IgG1, kappa, name in Kabat numbering, Substitutions are numbered by Kabat) heavy: EVMLVESGGGLVKPGGSLRLSCAASGFTFSNYAMSWVRQAPGKGLEWVATISSGGSHTYYLDSVKHRFTISRDNSKDTLYLQMNSLRAEDTALYYCARLFTGHAMDYWGQGTLVTVSSASTKGPSVFPLAPSSKSTSGGTAALGCLVKDYFPEPVTVSWNSGALTSGVHTFPAVLQSSGLYSLSSVVTVPSSSLGTQTYICNVNHKPSNTKVDKKVEPKSCDKTHTCPPCPAPELRRGPSVFLFPPKPKDTLMISRTPEVTCVVVDVSHEDPEVKFNWYVDGVEVHNAKTKPREEQYNSTYRVVSVLTVLHQDWLNGKEYKCKVSNKGLPSSIEKTISKAKGQPREPQVYTLPPSREEMTKNQVSLTCLVKGFYPSDIAVEWESNGQPENNYKTTPPVLDSDGSFFLYSKLTVDKSRWQQGNVFSCSVMHEALHNHYTQKSLSLSP light: QIVLTQSPATLSLSPGERATLSCTASSSVSSSYLHWYQQKPGKAPKLWIYSTSNLASGVPSRFSGSGSGTDYTLTISSLQPEDFATYYCHQYYRLHPITFGQGTKLEIKRTVAAPSVFIFPPSDEQLKSGTASVVCLLNNFYPREAKVQWKVDNALQSGNSQESVTEQDSKDCTYSLSSTLTLSKADYEKHKVYACEVTHQGLSSPVTKSFNRGEC | 384000 | 7.7 | 0.00309 | 289000 | 8.9 | 1.2 | 10.7 |

More lines, now with the values ahead:

| kon (Serum-derived human C1s [1]) [M⁻¹ s⁻¹] | koff (5.8+ of 775+)/koff (7.4+) (Serum-derived human C1s [2]) | koff (Serum-derived human C1s [3]) [s⁻¹] | kon (Serum-derived human C1s [3]) [M⁻¹ s⁻¹] | KD (5.8+)/KD (7.4+) (Serum-derived human C1s [4]) | Kd (Serum-derived human C1s [1]) [nM] | Kd (Serum-derived human C1s [3]) [nM] | Binder |
| --- | --- | --- | --- | --- | --- | --- | --- |
| 469000 | 54.2 | 0.0194 | 233000 | 74.9 |  |  | IPN92H0288/IPN93L0211-SG136 (antibody, human IgG1, kappa) heavy: EVMLVESGGGLVKPGGSLRLSCAASGFTFSNYAMSWVRQAPGKGLEWVATISSGGSHTYELDSVDGRFTISRDNSKDTLYLQMNSLRAEDTALYYCARLFTKHAMDYWGQGTLVTVSSASTKGPSVFPLAPSSKSTSGGTAALGCLVKDYFPEPVTVSWNSGALTSGVHTFPAVLQSSGLYSLSSVVTVPSSSLGTQTYICNVNHKPSNTKVDKKVEPKSCDKTHTCPPCPAPELRRGPSVFLFPPKPKDTLMISRTPEVTCVVVDVSHEDPEVKFNWYVDGVEVHNAKTKPREEQYNSTYRVVSVLTVLHQDWLNGKEYKCKVSNKGLPSSIEKTISKAKGQPREPQVYTLPPSREEMTKNQVSLTCLVKGFYPSDIAVEWESNGQPENNYKTTPPVLDSDGSFFLYSKLTVDKSRWQQGNVFSCSVMHEALHNHYTQKSLSLSP light: QIVLTQSPATLSLSPGERATLSCTASSEVSESYLHWYQQKPGKAPKLWIYSTSNLASGVPSRFSGSGSGTDYTLTISSLQPEDFATYYCHQYYRLHPITFGQGTKLEIKRTVAAPSVFIFPPSDEQLKSGTASVVCLLNNFYPREAKVQWKVDNALQSGNSQESVTEQDSKDCTYSLSSTLTLSKADYEKHKVYACEVTHQGLSSPVTKSFNRGEC |
| 666000 | 38.8 | 0.0127 | 315000 | 65.6 |  |  | IPN92H0288/IPN93L0058-SG136 (antibody, human IgG1, kappa) heavy: EVMLVESGGGLVKPGGSLRLSCAASGFTFSNYAMSWVRQAPGKGLEWVATISSGGSHTYELDSVDGRFTISRDNSKDTLYLQMNSLRAEDTALYYCARLFTKHAMDYWGQGTLVTVSSASTKGPSVFPLAPSSKSTSGGTAALGCLVKDYFPEPVTVSWNSGALTSGVHTFPAVLQSSGLYSLSSVVTVPSSSLGTQTYICNVNHKPSNTKVDKKVEPKSCDKTHTCPPCPAPELRRGPSVFLFPPKPKDTLMISRTPEVTCVVVDVSHEDPEVKFNWYVDGVEVHNAKTKPREEQYNSTYRVVSVLTVLHQDWLNGKEYKCKVSNKGLPSSIEKTISKAKGQPREPQVYTLPPSREEMTKNQVSLTCLVKGFYPSDIAVEWESNGQPENNYKTTPPVLDSDGSFFLYSKLTVDKSRWQQGNVFSCSVMHEALHNHYTQKSLSLSP light: QIVLTQSPATLSLSPGERATLSCTASSEVSSSYLHWYQQKPGKAPKLWIYSTSNLASGVPSRFSGSGSGTDYTLTISSLQPEDFATYYCHQYYRLHPITFGQGTKLEIKRTVAAPSVFIFPPSDEQLKSGTASVVCLLNNFYPREAKVQWKVDNALQSGNSQESVTEQDSKDCTYSLSSTLTLSKADYEKHKVYACEVTHQGLSSPVTKSFNRGEC |
| 319000 | 38.2 | 0.0267 | 217000 | 60.9 | 2.02 | 123 | IPN92H0281/IPN93L0024-SG136 (antibody, human IgG1, kappa, name in Kabat numbering, Substitutions are numbered by Kabat) heavy: EVMLVESGGGLVKPGGSLRLSCAASGFTFSNYAMSWVRQAPGKGLEWVATISSGGSKTYELDSVDERFTISRDNSKDTLYLQMNSLRAEDTALYYCARLFTKHAMDYWGQGTLVTVSSASTKGPSVFPLAPSSKSTSGGTAALGCLVKDYFPEPVTVSWNSGALTSGVHTFPAVLQSSGLYSLSSVVTVPSSSLGTQTYICNVNHKPSNTKVDKKVEPKSCDKTHTCPPCPAPELRRGPSVFLFPPKPKDTLMISRTPEVTCVVVDVSHEDPEVKFNWYVDGVEVHNAKTKPREEQYNSTYRVVSVLTVLHQDWLNGKEYKCKVSNKGLPSSIEKTISKAKGQPREPQVYTLPPSREEMTKNQVSLTCLVKGFYPSDIAVEWESNGQPENNYKTTPPVLDSDGSFFLYSKLTVDKSRWQQGNVFSCSVMHEALHNHYTQKSLSLSP light: QIVLTQSPATLSLSPGERATLSCTASSSVSSSYLHWYQQKPGKAPKLWIYSTSNLASGVPSRFSGSGSGTDYTLTISSLQPEDFATYYCHQYYRLHPITFGQGTKLEIKRTVAAPSVFIFPPSDEQLKSGTASVVCLLNNFYPREAKVQWKVDNALQSGNSQESVTEQDSKDCTYSLSSTLTLSKADYEKHKVYACEVTHQGLSSPVTKSFNRGEC |
